# Experimental data as given in article PMC10754921.
# Molecular target: FMC63-scFv (VL - Whitlow linker - VH, C-terminal His8 tag) (mouse)
# Experiment: SEC-MALS; 25 µg injected, Superdex 200 Increase 10/300 GL, PBS with additional 200 mM NaCl, pH 7.4, 25 °C
substance,measurement,value
"FMC63-scFv (VL - Whitlow linker - VH, C-terminal His8 tag)",percent dimers,20%
same,stoichiometry N,2
